# The supplement of paper PMC10567573
# ± gives the standard deviation.
# Assay: protein stability index of a GFP-peptide fusion (GPS, HEK-293T) (PSI 1-6); higher = more stable
# [1] = treatment: DMSO, c terminus: a fixed tail appended
# [2] = treatment: MLN4924 1 uM, 8 h, c terminus: a fixed tail appended
# 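Further: 24-mer peptide tiles fused after GFP, lentivirally expressed, FACS-sorted into six equal bins by GFP/DsRed ratio, decoded by Illumina sequencing, PSI is the read-weighted mean bin number.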
Sequence,protein stability index [1],protein stability index [2],"protein stability index (treatment: DMSO, c terminus: native)","protein stability index (treatment: MLN4924 1 uM, 8 h, c terminus: native)"
SLKDHKVSFLRSGTKLIFRRRPRQ [C2CD2L],3.24 ± 0.49,3.44 ± 0.55,–,–
SLSVRHRQVKHYRIFRLPNNWYYI [SLA],2.29 ± 0.7,2.58 ± 0.49,–,–
SLTDDKYDVAMNRAKDLVELDPEV [GOLPH3L],5.37 ± 0.16,5.4 ± 0.26,–,–
SLVAPLLLELAGEVTDTGDPIVRP [MYORG],3.23 ± 0.33,3.3 ± 0.23,–,–
SLVYYGLTLSAGDLGGSIYANLAL [SLC22A15],3.02 ± 0.6,2.91 ± 0.45,–,–
SMLPPVNFSIVPYEKKFDTFIPLE [SPATS1],2.6 ± 0.26,2.49 ± 0.1,–,–
SNADQLMENIGAIQVLPKLSSSII [KCNAB2],3.21 ± 0.38,3.23 ± 0.29,–,–
SNGSMHNYCPQQTKITSAFKYINT [EDNRA],2.36 ± 0.35,2.6 ± 0.26,–,–
SNYSLPPPLPTYHVLLEGEGLGQS [TRIM29],3.67 ± 0.23,3.68 ± 0.22,–,–
SPEKFQIEANFPRRVLPCIPSEEW [FAF2],3.75 ± 0.12,3.79 ± 0.29,–,–
SPESSRGQCGENLAWASYDQTGKE [GLIPR2],4.8 ± 0.21,4.73 ± 0.27,–,–
SPINMEDQERIKVERKRLRNRLAA [JUNB],4.48 ± 0.55,4.65 ± 0.087,–,–
SPSENSKEAEILEVLRHPRDWVR [CPOX],–,–,4.42 ± 0.15,4.53 ± 0.26
SPSNVQKWLLWTEHQYRLPPMGKA [SPDEF],2.42 ± 0.2,2.61 ± 0.19,–,–
SPTIIFDNWIPLLWCANILGYAVS [DHCR7],3.36 ± 0.13,3.48 ± 0.42,–,–
SQDERLDVLLTLKHTVKEHECKLT [IQUB],3.41 ± 0.3,3.41 ± 0.16,–,–
SQFKILVSLLENNIYVHDLLTFQQ [VPS39],3.02 ± 0.29,3.21 ± 0.6,–,–
SQKNEKALTNIQNCMAEKRETVLI [C8orf76],3.54 ± 0.29,3.69 ± 0.19,–,–
SQLAGQVNVEMDAAPGVDLTRVLA [KRT15],4 ± 0.18,3.94 ± 0.057,–,–
SQMFPSSKARTKSLLGDDVFSTMA [FBF1],2.89 ± 0.26,2.97 ± 0.21,–,–
SRLMRRHKRRRRKQKVSRIERSSS [DVL3],4.46 ± 0.27,4.43 ± 0.09,–,–
SRLNLTGLGYFSCHSHTVVQDYSY [CCDC3],2.12 ± 0.37,2.18 ± 0.11,–,–

Sequence,protein stability index [1],protein stability index [2],"protein stability index (treatment: DMSO, c terminus: native)","protein stability index (treatment: MLN4924 1 uM, 8 h, c terminus: native)"
SRRDDLEALGHMFMYFLRGSLPWQ [CSNK1G1],3.48 ± 0.54,3.15 ± 0.86,–,–
SSHHSHSYIGLPYADHNYGARPPP [KMT2E],3.46 ± 0.16,3.7 ± 0.27,–,–
SSIPCSGSLDGRELSRQVRSSVEL [PPEF2],4.298 ± 0.036,4.17 ± 0.13,–,–
SSLFMDTEKSGKREFDVRQTPQVN [WEE1],4.58 ± 0.26,4.71 ± 0.27,–,–
SSNGNDNGNGKNGGLEHVPSSSSI [BNIP3L],5.2 ± 0.29,5.33 ± 0.17,–,–
SSNKKEKKVLNHGYDDDNHDYIVR [DYRK1B],4.55 ± 0.22,4.45 ± 0.19,–,–
SSVQSYPGSASLAQSRLEDPGADS [DLX1],5.23 ± 0.2,5.52 ± 0.24,–,–
STARRSRAASSQRAEEEDDDIKQL [CHMP4C],5.59 ± 0.073,5.46 ± 0.25,–,–
STDPNIVRKKERGREEKCVWKHGI [TAF7L],3.31 ± 0.37,3.51 ± 0.26,–,–
STDTESNNEEQRSGLIYLTNHIAP [IKZF1],4.63 ± 0.2,4.81 ± 0.21,–,–
STEDMERALSEYLAVFARCLAGCE [P3H4],3.59 ± 0.2,3.37 ± 0.32,–,–
STLEESVVRICCIRSFGHFIARLQ [SMG5],2.29 ± 0.04,2.19 ± 0.37,–,–
STPRPPEASSSPPEGSQDRNTSWG [TLE6],5.32 ± 0.17,5.291 ± 0.047,–,–
SYSFQNPSSFDPSMLLQRFSVAPH [RNF180],2.58 ± 0.28,2.68 ± 0.23,–,–
TAGEMVFVYENAKEGARNIRTSER [BTBD10],3.94 ± 0.21,3.98 ± 0.14,–,–
TAKDNGEAEDQEEKEDAEKENIEK [SRPK2],5.58 ± 0.12,5.67 ± 0.25,–,–
TAYSRLNETQPIDLSGLPLQSSKN [RNF180],3.76 ± 0.27,3.86 ± 0.25,–,–
TCICYLCMFQEHKNHSTVTVEEAK [TRIM29],2.24 ± 0.43,2.67 ± 0.51,–,–
TDLIWKNQNSWGTGEDVKVILKNS [LMNB1],3.47 ± 0.44,3.74 ± 0.26,–,–
TETQRLGLAMALEPNTTFLRKSLK [FANCE],4.05 ± 0.19,4.14 ± 0.16,–,–
TFTEHPMKYTSEKFLEICKLSGFM [TPRG1],2.35 ± 0.48,2.22 ± 0.5,–,–
TGAACRLVEAVLSGEVLNGAAVVR [HDAC6],2.13 ± 0.35,2.27 ± 0.28,–,–
